The text below walks through data of the nanobody polyreactivity screen of Harvey et al. (2022).

The data set can be described thus: yeast display, Sf9 membrane polyspecificity reagent, FACS + sequencing; frameworks hold sequencing errors. In a few lines: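 Polyreactivity labels are assigned by the sorting gate from which each nanobody was recovered. The gates were low and high (top ~1%), set on anti-HA fluorescence for expression and streptavidin fluorescence for reagent binding. Before sorting, galactose-induced (36–48 hours) yeast display cells were stained for 1 hour at 4 °C with 10% biotinylated, detergent-solubilized Sf9 membrane reagent.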
On to “QVQLVESGGGLVQAGGSLRLSCAASGYTFGYYAMGWYRQAPGKERELVAAINWSGGSTYYADSVKGRFTISRDNAKNTVYLQMNSLKPEDTAVYYCNRRTGSYGRTPVWKGEYYYWGQGTQVTVSS”, for which the “polyreactivity (PSR sort gate)” value was “high polyreactivity”.
As for “QVQLVESGGGLVQAGGSLRLSCAASGNTFGAYTMGWYRQAPGKEREFVAAISYSGGITFYADSVKGRFTISRDNAKNTVYLQMNSLKPEDTAVYYCAARTYRYGYWYDYWGQGTQVTVSS”, the entry is “high polyreactivity”; as for “QVQLVESGGGLVQAGGSLRLSCAASGFTIRLYAMGWYRQAPGKERELVAAITSGGSTYADSVKGRFTISRDNAKNTVYLQMNSLKPEDTAVYYCNAEALVNGGYDYWGQGTQVTVSS”, “high polyreactivity”; as for “QVQLVESGGGLDQAGGSLRLSCAASGSIFWAYVMGWYRQAPGKERELVARISSGGRTKYADSVKGRFTISRDNAKNTVYLQMNSLKPEDTAVYYCNADASSSPYTDRQYIGADDSWGHGTQVTVSS”, “low polyreactivity”.
To “QVQLVESGGRLVQAGGSLRLSCAASGYNFSKYAMGWYRQAPGKERELVAAISGSGGSTSYADSVKGRFTISRDNAKNTVYLHMNSLKPEDTAVYYCNARSRLQRGRMDYWGQGTQVTVSS” belongs “high polyreactivity”.
As for “QVQLVESGVGLVQAGGSLRLSCAASGRILYPNTMGWYRQAPGKERELVAAISGSGYRTYYADSVKGRFTISRDNAKNTVYLQMNSLKPEDTAVYYCAASGYWPFRSGFGYWGQGTQVTVSS”, the “polyreactivity (PSR sort gate)” value is “high polyreactivity”.
As for “QVQLVESGGGLVQAGGSLRLSCAASGSIFYYNAMGLYIQAPGKERELVAAITSSGGSTYYADSVKGRFTISRDNAKNTVYLQMNSLNPEDTAVYYCNNDTLVYGYVQDSEYWGQGTQVTVSS”, the entry is “low polyreactivity”; as for “QVQLVESGGGLVQAGGSLRVSCASSGSTFVSYAMVWYRQAPGKERELVASISGSDGRTYYADSVKGRFTISRDNAKNTVYLQMKSLNPEDTAVYYCAKRYWRHPVFYLYDYWVQGTQVTVSS”, “high polyreactivity”.
To “QVQLVESGGGLVQAGGSLRLSCAAYGRIFRYNAMGWSTQAPGKERELVAAISRGGSSTYYADSVKGRFTISRDNAKNTVYLQMNSLQPEDTAVYYCNARSVVREFNNWGQGTQVTVSS” belongs “high polyreactivity”; to “QVQLVESGGGLVQAGGSLRLICAASGRIFCRNTMGWYRQAPGKERELVAAINYSGGRTYYADSVKGRFTISRDNAKNTVYLLMNSLKPEDTAVYYCAATPPVATNGRYYYWGQGTQVTVSS”, “low polyreactivity”.
As for “QVQHVESGGGLVQAGGSLRLSCAASGFIFWYYTMGWYRQAPGKVRELLATISGGGSTYYADSVKGRFTISRDNAKNTVYLQMNSLKPEDTAVYYCNAVIRTRRVGYGDGVDYWGQGTQVTVSS”, the entry is “high polyreactivity”; as for “PVQLVESGGGLVQAGGRLLLICAASGSIFTPKAMGWYRQAPGKERELVAAITSRGGSTYYADSVKGRFTISRDNAKNTFYLQMNSLKPEDTAVYYCASKPHSSKYDYWGQGTQVTVSS”, “low polyreactivity”; as for “QVQLVESGGGLVQAGGSLRLSCAASGSIFNRYAMGLYRQAPVKERELVAAISSTGSTYYADSVKGRFTISRDNAKNTVYLQMNSLKPEDTAVYYCATDDPLSQINEQGMDYWGQGTQVTVSS”, “low polyreactivity”.
“QVQLGESGGGLVQAGGSLRLSCAASGRIFRNNAMGWYRQAPGKERELVAAITWSGGSTYYADSVKGRFTISRDNAKNTVYLQMNSLKPEDTAVYYCNAGRGYKYSYTYDYWGQGTQVTLSS”: the “polyreactivity (PSR sort gate)” value is given as “low polyreactivity”.
As for “QVQLVESGGGLVQAGGSLRLSCAASGRIFGYYAMGWYRQAPGKQRELVAAISWSGGRTYYADSVKGRFTISRDNAKNTVYLQMNSLKPEDTAVYYCNKVYRVPITEEYDYWGQGTQVTVSS”, the entry is “high polyreactivity”; as for “QVQLVESGGGLVQAGGSLRLSCAASGITFYEYAMGWYRQAPGKERELVATITSGGNTNYADSVKGRFTISRDNAKNTVYLQMNSLKPEDTAVYYCNKEWDGDGYTDDWDYDYWGQGTQVTVSS”, “low polyreactivity”.
On to “QVQLVESGGGLVQAGGSLRLRCAASGYIFGAYALGWYRQAPGKERELVAAIHVGDASAYYADSVKGRFTISRDNAKKTVYLQMNSLKPEDTAVYYCAKDRGSWEWYTVDYWGQGTQVTVSS”, for which the “polyreactivity (PSR sort gate)” value is reported as “low polyreactivity”.
To “QVQLVETGGALVQAGGSLRLSCAASGFTFIDYTMGCYSQAPGKERELVARITDTGSTNYADSVKVRFTISRDNAKNTVYLQMNSLKQEDTAVYYCNKDDRNDRTIPGYDPEYDYWGQGTQVTVSS” belongs “low polyreactivity”; to “QVQLVESGGGLVQAGGILRLSCAASGSTFFSNTKGWYRQAPGKERELVAAITDSGTSTYYADSVKGRFTISRDIAKNTVYLQMNSLKPEDTAVYYGDAYPSGWYDYWGHGTQVTVSS”, “low polyreactivity”.
To “QVQLVESGGGLVQAGGSLRLSCAASGRTFRWNAMGWYRPAPGKERELVAAISSGGSTYYADSVKGRFTISRDNAKNTVYLQMNSLKPEDTAVYYCNKYYVRAYDTQEYDYWGQGTQVTVSS” belongs “high polyreactivity”.
As for “QVQLVESGGGLVQAGGSLRLSCAASGFIYGKNAMGWYRQAPGKERELVAAISQRGGSTYYADSVKGRFTISRDTAKNTVYLQMNSLKPEDTAVYYCAADGRRVVARYDYWGQVTQVTVSS”, the entry is “high polyreactivity”.
As to “QVQLVESGGGLVQAGGSLRLICAASGNTFSAYGMGYYRQAAGKERELVAGITNGGSTNYADSVKGRFTISRDNAMNTVYLQMNSLKPEDTAVYYCATVQYVEPPTPVDYWGQGTQVTVSS”, the “polyreactivity (PSR sort gate)” value was “low polyreactivity”.
To “QVQLVESGGGLVQAGGSLRLSCAASGRTFEIYAIGWYSKAPGKERELVAAISSGGSTYYADSVKGRFTISRDNAKNTVYLQMNSLKPEDTAVYYCAVRWYDQVSRRGIGYYWGQGTQVTVSS” belongs “low polyreactivity”; to “QVQLVESGGGLVQAGGSLRLSCAASGGIFERNDMGWYRQAPGKERELVAGISSVGSTNYADSVKGRFTISRDNAKNTVYLQMNSLKPEDTAVYYCAAPTKREFRYLRYDYWGQGTQVTVSS”, “low polyreactivity”; to “QVQLVESGGGLVQAGGSLRLSCAASGSTLYAYAMGWYRQAPGKERELVAAISSRAVRTYYADSVKGRFTISRDNAKNTVYLQMNSMKPEDTAVYYCAAQRSYAYEYWGQGTQVTVSS”, “high polyreactivity”.
To “QVQLVESGGGLVQAGGSLRLSCAASGSILYFNAMGWYRQAPGKEREFVATIRRSGGSTNYADSVKGRFTISRDNAKNTVYLQMNSVKREDTAVYYCNARLSSGYTSWRYNYWGQGTQVSVSS” belongs “high polyreactivity”; to “QVQLVESGGGLVQAGGSLRLSCAASGITFSRYAMGWYRQAPGKERELVAAISWSGTSTYYADSVKGRFTISRDNAKNTVYLQMNSLKPEDTAVYYCAASYGYYRYGYWGQGTQVTVSS”, “high polyreactivity”.
Take “QVQLVESGGGLVQAGGSLSLSCAASGRTFSGNAMGWYRQAPGKERELVAAINWRGGRTYYADSVKGRFTISRDNAKNTVYLQMNSLKPEDTAVYYCAAVYVFHRYIYSLYDYWGQGTQVTVSS”: the “polyreactivity (PSR sort gate)” value was “high polyreactivity”.
To “QVQLVESGGGLVQAGGSLRLSCDASGSTFWYAMGWYIKAPGKEMDLVAAITARGGRTYYADSVKGRFTISRDNAKNTVYLQMNSLKPEDTAVYYCARLSYAGGQWIIGKYDYWGQGTQVTVSS” belongs “high polyreactivity”.
“QVQLVESGGGLVQAGGSLRLSCAASGFNFTHYAMGWYRQAPGKERELVAAISRNGGSTYYADSVKGRFTISRDNAKNTVYLQMNSLKPEDTAVYYCAAVRHGVSLAGYYWGQGTQVTVSS”: the “polyreactivity (PSR sort gate)” value is “high polyreactivity”.
Turning to “QVQLVESGGGLVQAGGSLRLSCAASGFTFRFYGMGWYRQAPGKERELVAAISSRGTTTYYADSVKGRFTISRDNAKNTVYLQMNSLKPEDTAVYYCNKEYTTYGYDLEYDYWGLGTQVTVSS”, the “polyreactivity (PSR sort gate)” value is reported as “low polyreactivity”.
Take “QVQLVESGGGLVQAGGSLRLSCAASGITIWWYAMGWYRQAPGKERELLAAITGGGSTNYADSVKGRFTISRDNAKNTVYLQMNSLKPEDTAVYYCAATGSPARNWDTVTGYYYWGQGTQVTVSS”: the “polyreactivity (PSR sort gate)” value is “low polyreactivity”.
On to “QVQLVESGGGLVQAGGSLRLSCAASGRTFRAYAMGGYRQAPGKERELVAAITSGGSTYYADSVKGRFTISRDNAKNTVYLQMNSLKPEDTAVYYCNRRGWSRTHQYDYWGQGTQVTESS”, for which the “polyreactivity (PSR sort gate)” value is recorded as “high polyreactivity”.
As for “QVQLVESGGGLVQAGGSLRLSCAASGSIFSPNAMGWYRQAPGKEMELVPRITSGGSTFYADSVKGRFTISRDYAKNTVYLQMYSLKPEDTAVSYCAAVQTRYTSVFSSTRYDYWGQGTQVTVSS”, the entry is “low polyreactivity”; as for “QVQLVESGRGLVQAGGSLRLSCAASGSTFYRYAMGWYRQAPGKERELVAGITGSGGRTYYADSVKGRFTISRDNAKNTVYLQMNSLKPEDTAVYYCNAYPSSSLFDYWGQGTQVTVSS”, “low polyreactivity”.
As for “QVQLVESGGGLVQAGGSLRLSCAASGSIFVVNAMGWYRQAPGKERELVAAIDWSDGGTYYADSVKGRFTISRDNAKNTVYLQMNSLKPEDTAVYYCATVRYVQITRDDYWGQGTQVTVSS”, the entry is “low polyreactivity”; as for “QVQLVESGGGLVQAGGSLRLSCAASGRIFGLYAMGWYRQAPGKERELVAAITLSGDGTDYADSVKGRFTISRDNAKNTVYLQMNSLKPEDTPVYYCAKVGQYWWNMDYWGQGTQVTVSS”, “low polyreactivity”; as for “QVQLVESGGGLDQAGGSLRLSCAASGRTFAYYAIGWYRQAPGKERELVATITSYVGRTYYADSVKGRFTISRDNAKKSVYLQMNSLKPDDTAVYYSNARDWGRTRGGGYPWLYRYDYWGQGTQVTVSS”, “low polyreactivity”.
To “QVQLVESGGGLVQAGGSLRLSCAASGRIFPAYAMGWYRQSPGKERELVASIRRGGITYADSVKGRFTISRDNAKNTVSLQMTSLNPEDTAVYYCNAHYRGWGYHMDYWGQGTQVTGSS” belongs “low polyreactivity”.
With “QVQLVESVGGLVQAGGSLRLSCAASGRIFSVYTMGWYRQAPGKERELVAAISSGASTNYADSVKGRFTISRDNAKNTVYLQMNSLKPEDTAVYYCNAQWYLRLGASKTWVDVDYWGQGTQVTVSS”, the “polyreactivity (PSR sort gate)” value is reported as “low polyreactivity”.
